From patent US20260116951A1 (DUCENTIS BIOTHERAPEUTICS, published 2026)

T1: muCD200R-Fc (Creative Biomart CD200R1-458M) (mouse, UniProt Q9ES57 26-238)
T1 construct: Captured on anti-human IgG Fc for the mouse CD200 measurements; also called Murine CD200R1; immobilized CD200R (muCD200); not shown: Fc of the bought fusion, not described (captured on anti-human IgG Fc)
T1 sequence (looked up): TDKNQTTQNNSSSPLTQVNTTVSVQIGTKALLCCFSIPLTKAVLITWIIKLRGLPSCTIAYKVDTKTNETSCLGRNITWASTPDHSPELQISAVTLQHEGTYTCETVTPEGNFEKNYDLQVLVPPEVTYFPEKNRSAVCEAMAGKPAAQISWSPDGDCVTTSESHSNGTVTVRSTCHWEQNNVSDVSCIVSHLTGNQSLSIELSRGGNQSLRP

B1: DS-192 (human CD200-Fc, K130Y, IgG4 Fc) (Fc fusion)
chain: QVQVVTQDEREQLYTPASLKCSLQNAQEALIVTWQKKKAVSPENMVTFSENHGVVIQPAYKDKINITQLGLQNSTITFWNITLEDEGCYMCLFNTFGFGYISGTACLTVYVQPIVSLHYKFSEDHLNITCSATARPAPMVFWKVPRSGIENSTVTLSHPNGTTSVTSILHIKDPKNQVGKEVICQVLHLGTVTDFKQTVNKGPPCPPCPAPEFLGGPSVFLFPPKPKDTLMISRTPEVTCVVVDVSQEDPEVQFNWYVDGVEVHNAKTKPREEQFNSTYRVVSVLTVLHQDWLNGKEYKCKVSNKGLPSSIEKTISKAKGQPREPQVYTLPPSQEEMTKNQVSLTCLVKGFYPSDIAVEWESNGQPENNYKTTPPVLDSDGSFFLYSRLTVDKSRWQEGNVFSCSVMHEALHNHYTQKSLSLSLGK
notes: also called 13 nM CD200-Fc; ha CD200-IgG4 Fc
B2: Recombinant Human CD200R, His-tagged (Creative Biomart CD200R1-320H) (receptor, UniProt Q8TD46 27-266, looked up)
chain: AAQPNNSLMLQTSKENHALASSSLCMDEKQITQNYSKVLAEVNTSWPVKMATNAVLCCPPIALRNLIIITWEIILRGQPSCTKAYKKETNETKETNCTDERITWVSRPDQNSDLQIRTVAITHDGYYRCIMVTPDGNFHRGYHLQVLVTPEVTLFQNRNRTAVCKAVAGKPAAHISWIPEGDCATKQEYWSNGTVTVKSTCHWEVHNVSTVTCHVSHLTGNKSLYIELLPVPGAKKSAKL
notes: Bought; also called human CD200 receptor; not shown: His tag

How the values were obtained:
[1] = target: T2, Recombinant Cyno CD200R, His-tagged (Creative Biomart CD200R1-3483C) (cynomolgus monkey); assay: SPR, cyno CD200R1 flowed over immobilized CD200-Fc, 25 C, 1:1 fit, mean of 2 experiments with standard deviation
T2 construct: Bought; also called cynomolgus CD200R1; cynomolgus CD200R
Experimental: (§1) For human CD200 constructs: anti-human Fc (GE Healthcare) was covalently immobilized on a BIAcore CM5 sensor chip (Cytiva, BR100530) by amine coupling using a Cytiva kit (BR100839) following the manufacturer's instructions, targeting immobilization of 8,000-11,000 RU. CD200-Fc proteins were diluted to 0.5 μg/mL to 4 μg/mL in running Buffer (1×HBS-EP+pH7.4 (Cytiva BR100669), HEPES Buffered Saline pH 7.4 containing 3 mM EDTA and 0.05% v/v Surfactant P20) and flowed for 25 to 100 seconds at 10 μL/min over the immobilized Anti-Human IgG Fc, with a stabilization time of 60 seconds. Between 35 and 250 RUs of CD200-Fc were captured, with higher RUs used for cynomolgus CD200R binding experiments. […] Analysis temperature was 25° C. This was followed by regeneration of the surface with 30-90 second pulse of 3M MgCl₂ flowed at […] flow rate followed by stabilization of the surface with 60 second flow of running buffer.
(§2) Curves obtained were fitted to 1:1 Langmuir binding model by setting Rmax and RI as local parameters. Rate equations using standard parameters (e.g. ligand concentration, time) were used for iterative curve fitting. […] Means of 2 experiments carried out on the same day are shown with standard deviation. Residue numbering for CD200 proteins refers to the pre-protein, containing a signal peptide which is cleaved during insertion into the endoplasmic reticulum.

[2] = target: B2; assay: SPR, CD200R flowed over immobilized CD200-Fc, 25 C, 1:1 fit
Experimental: as §1, §2

[3] = target: T2, Recombinant Cyno CD200R, His-tagged …; assay: SPR, cyno CD200R1 flowed over immobilized CD200-Fc, 25 C, 1:1 fit
Experimental: as §1, §2

[4] = target: B1; assay: SPR (BIAcore)
[5] = target: B1; assay: SPR, CD200R flowed over immobilized CD200-Fc, 25 C, 1:1 fit, mean of 2 experiments with standard deviation
Experimental: as §1, §2

[6] = target: T1, muCD200R-Fc (Creative Biomart …); assay: SPR, his-tag mouse CD200 monomer flowed over muCD200R-Fc captured on anti-human Fc, 25 C, 1:1 fit
Experimental: (§3) For mouse CD200 constructs, muCD200R-Fc (Creative Biomart CD200R1-458M) diluted to 1 μg/mL in running buffer was flowed over the immobilized Anti-Human IgG Fc, with CD200 monomers serially diluted and flowed over captured CD200R. Other details were as above. Data analysis: experimental sensorgrams were analyzed in BIAevaluation software (GE Healthcare). The curves obtained were fitted to 1:1 Langmuir binding model by setting Rmax and RI as local parameters. Rate equations using standard parameters (e.g. ligand concentration, time) were used for iterative curve fitting. Closeness of fit was determined by algorithms provided by the manufacturer in the BIAevaluation software, and data accepted if the Chi² value was less than 10% of Rₘₐₓ, and the U value was less than or equal to 15.
as §2

[7] = target: T1, muCD200R-Fc (Creative Biomart …); assay: SPR, his-tag mouse CD200 monomer flowed over muCD200R-Fc captured on anti-human Fc, 25 C, 1:1 fit, mean of 2 experiments with standard deviation
Experimental: as §3, §2

[8] = target: T1, muCD200R-Fc (Creative Biomart …); assay: SPR, monomeric binding
Experimental: as §3, §2

Row | binding result [4] | T1/2 [6] [min] | Kd [7] [nM] | Binder | further results
1 | – | – | – | B1 | Kd [1]: 459 nM; T1/2 [2]: 3.1 min; T1/2 [3]: 0.32 min
2 | no binding | – | – | Mouse CD200R protein (Creative Biomart CD200R1-3280M) (receptor, UniProt Q9ES57 26-238, looked up, also called Murine CD200R1; murine CD200R) TDKNQTTQNNSSSPLTQVNTTVSVQIGTKALLCCFSIPLTKAVLITWIIKLRGLPSCTIAYKVDTKTNETSCLGRNITWASTPDHSPELQISAVTLQHEGTYTCETVTPEGNFEKNYDLQVLVPPEVTYFPEKNRSAVCEAMAGKPAAQISWSPDGDCVTTSESHSNGTVTVRSTCHWEQNNVSDVSCIVSHLTGNQSLSIELSRGGNQSLRP | –
3 | – | – | – | B2 | Kd [5]: 12.5 nM
4 | no binding | – | – | Human CD200R1L (receptor, UniProt Q6Q8B3 24-239, looked up, nothing is said of the reagent) GKQMTQNYSTIFAEGNISQPVLMDINAVLCCPPIALRNLIIITWEIILRGQPSCTKAYKKETNETKETNCTVERITWVSRPDQNSDLQIRPVDTTHDGYYRGIVVTPDGNFHRGYHLQVLVTPEVNLFQSRNITAVCKAVTGKPAAQISWIPEGSILATKQEYWGNGTVTVKSTCPWEGHKSTVTCHVSHLTGNKSLSVKLNSGLRTSGSPALSLL | –
5 | – | 0.288 | 584 | Murine wild-type CD200 monomer, his-tag (DS-131), printed in Table 7 as DS-198 (ligand, mouse, UniProt O54901 31-232, looked up, extracellular domain; the match of DS-131 to DS-198 follows the order of the sentence; also called wild type muCD200-Fc (the corresponding IgG2a Fc fusion); not shown: his tag) QVEVVTQDERKALHTTASLRCSLKTSQEPLIVTWQKKKAVSPENMVTYSKTHGVVIQPAYKDRINVTELGLWNSSITFWNTTLEDEGCYMCLFNTFGSQKVSGTACLTLYVQPIVHLHYNYFEDHLNITCSATARPAPAISWKGTGTGIENSTESHFHSNGTTSVTSILRVKDPKTQVGKEVICQVLYLGNVIDYKQSLDKG | –
6 | – | 1.96 | 43.3 | Murine CD200 H82Y, T125I monomer, his-tag (DS-169), printed in Table 7 as DS-227 (ligand, mouse, UniProt O54901 31-232, looked up, extracellular domain; See the note of m9; not shown: his tag) QVEVVTQDERKALHTTASLRCSLKTSQEPLIVTWQKKKAVSPENMVTYSKTYGVVIQPAYKDRINVTELGLWNSSITFWNTTLEDEGCYMCLFNIFGSQKVSGTACLTLYVQPIVHLHYNYFEDHLNITCSATARPAPAISWKGTGTGIENSTESHFHSNGTTSVTSILRVKDPKTQVGKEVICQVLYLGNVIDYKQSLDKG | fold higher affinity than wild type [8]: ~14 fold
